Laboratory results reported in patent publication US7579445.

Columns and labels:
[1] = molecular target: surface of Line-1-PSA cells (PSA-transfected Balb/cByJ lung carcinoma cell line); experiment: FACS on Line 1-PSA cells; negative control 7
[2] = molecular target: surface of P815-PSA cells (PSA-transfected DBA/2 mastocytoma cell line); experiment: FACS on P815-PSA cells; negative control 3
[3] = molecular target: surface of P815-PSA cells (PSA-transfected DBA/2 mastocytoma cell line); experiment: FACS on P815-PSA cells; negative control 5
[4] = molecular target: surface of Line-1-PSA cells (PSA-transfected Balb/cByJ lung carcinoma cell line); experiment: FACS on Line 1-PSA cells; negative control 4

mean fluorescence [1]: 8
mean fluorescence [2]: 11
mean fluorescence [3]: 37
mean fluorescence [4]: 5
Substance: MOPC-21 (antibody)
